PMC8935074, “Phosphorylated and Phosphomimicking Variants May Differ—A Case Study of 14-3-3 Protein” (Frontiers in Chemistry, 2022)
Numbering of substitutions follows the chain as printed. Names and notes keep the numbering of the source.

Tests used:
[1] = target: 14-3-3ζ phosphorylated at Ser58 (UniProt P63104); experiment: SEC-RALS; 5 mg/mL (183 μM) pζ and ζm in PBS pH 7.4, 20°C, triplicates; KD of dimerisation estimated from the protein percentage in the dimeric and monomeric peaks; dimer to monomers
14-3-3ζ [2] = target: 14-3-3ζ (UniProt P63104); experiment: AUC sedimentation velocity, 36.5 μM; conditions: sites S58
14-3-3ζ [3] = target: 14-3-3ζ (UniProt P63104); experiment: SEC-RALS, 36.5 μM; conditions: sites S58
14-3-3ζ WT [4] = target: 14-3-3ζ WT (UniProt P63104); experiment: AUC; sedimentation velocity, 1 mg/mL (36.5 μM) protein in 50 mM Tris-HCl, 300 mM NaCl, 3 mM NaN3, pH 8, 20°C, 50,000 RPM, c(s) distribution; dimer to monomers
14-3-3ζ WT [5] = target: 14-3-3ζ WT (UniProt P63104); experiment: SEC-RALS; size-exclusion chromatography with right-angle light scattering, 1 mg/mL (36.5 μM) protein in PBS pH 7.4, Zenix SEC 300 column, 20°C; dimer to monomers
14-3-3ζ L12E_M78K = 14-3-3ζ L12E_M78K (UniProt P63104); experiment: SEC-RALS; 5 mg/mL (183 μM) pζ and ζm in PBS pH 7.4, 20°C, triplicates; KD of dimerisation estimated from the protein percentage in the dimeric and monomeric peaks; dimer to monomers
[6] = target: the molecule itself; experiment: FRET or BRET; kinetic FRET assay in a cuvette: 200 nM AF647-labelled plus 200 nM AF488-labelled ζ_S58E_Ntail, then 100-fold excess of non-labelled ζ_S58E; 20 mM sodium phosphate pH 6.8, 15°C; profile fitted for KD and koff; dimer to monomers
FRET; 15°C = target: the molecule itself; experiment: FRET; 15°C
[7] = target: the molecule itself; experiment: SEC-RALS; 4.5 mg/mL (164 μM) ζ_S58D and ζ_S57D_S58D in PBS pH 7.4, 20°C, triplicates; KD of dimerisation calculated from the observed MW as weighted average of dimer and monomer; dimer to monomers
[8] = target: the molecule itself; experiment: AUC; sedimentation velocity, 1 mg/mL (36.5 μM) protein in 50 mM Tris-HCl, 300 mM NaCl, 3 mM NaN3, pH 8, 20°C, 50,000 RPM, c(s) distribution; dimer to monomers
[9] = reference: non-phosphorylated ζ

14-3-3ζ phosphorylated at Ser58 (from UniProt P63104 1-245) (natural protein)
Kd [1]: 7600 µM

14-3-3ζ (from UniProt P63104) ζ_S58D
other: apparent MW (14-3-3ζ [2]; reference: ζ wild type): weaker; reference 56.4 | other: apparent MW (14-3-3ζ [3]; reference: ζ wild type): weaker; reference 54.5

14-3-3ζ WT (from UniProt P63104 1-245) (natural protein)
stoichiometry N (14-3-3ζ WT [4]): 2 | stoichiometry N (14-3-3ζ WT [5]): 2

14-3-3ζ (from UniProt P63104) ζ_S58E
other: apparent MW (14-3-3ζ [2]; reference: ζ wild type): same; reference 56.4 | other: apparent MW (14-3-3ζ [3]; reference: ζ wild type): weaker; reference 54.5

14-3-3ζ (from UniProt P63104) ζ_S57D_S58D
other: apparent MW (14-3-3ζ [2]; reference: ζ wild type): weaker; reference 56.4 | other: apparent MW (14-3-3ζ [3]; reference: ζ wild type): weaker; reference 54.5

14-3-3ζ L12E_M78K (from UniProt P63104 1-245) (natural protein)
Kd (14-3-3ζ L12E_M78K): 4600 µM

14-3-3ζ (from UniProt P63104) pζ (PKA co-expressed, purified pS58 form)
other: apparent MW (14-3-3ζ [2]; [9]): weaker; reference 56.4 | other: apparent MW (14-3-3ζ [3]; [9]): weaker; reference 54.5

B1: ζ_S58E_Ntail, fluorescently labelled (natural protein)
chain: SVDACKGSSGGMDKNELVQKAKLAEQAERYDDMAAAMKSVTEQGAELSNEERNLLSVAYKNVVGARRSEWRVVSSIEQKTEGAEKKQQMAREYREKIETELRDICNDVLSLLEKFLIPNASQAESKVFYLKMKGDYYRYLAEVAAGDDKKGIVDQSQQAYQEAFEISKKEMQPTHPIRLGLALNFSVFYYEILNSPEKAASLAKTAFDEAIAELDTLSEESYKDSTLIMQLLRDNLTLWTSDTQGDEAEAGEGGEN
modifications: Cys5 (of the added N-terminal tail) labelled with AlexaFluor647-C5-maleimide (AF647) in one preparation and AlexaFluor488-C2-maleimide (AF488) in the other
Kd [6]: 0.35 ± 0.25 µM | koff (FRET; 15°C): 0.731 s⁻¹

B2: 14-3-3ζ S58D (natural protein, UniProt P63104 1-245, looked up)
chain: MDKNELVQKAKLAEQAERYDDMAAAMKSVTEQGAELSNEERNLLSVAYKNVVGARRSDWRVVSSIEQKTEGAEKKQQMAREYREKIETELRDICNDVLSLLEKFLIPNASQAESKVFYLKMKGDYYRYLAEVAAGDDKKGIVDQSQQAYQEAFEISKKEMQPTHPIRLGLALNFSVFYYEILNSPEKAASLAKTAFDEAIAELDTLSEESYKDSTLIMQLLRDNLTLWTSDTQGDEAEAGEGGEN
notes: 14-3-3ζ protein with C25A C189A and the phosphomimicking mutation S58D; source: E. coli BL21(DE3) CodonPlus RIL, purified (protocol of Hritz et al., 2014)
Kd [7]: 132 ± 7 µM

B3: 14-3-3ζ S57D_S58D (natural protein, UniProt P63104 1-245, looked up)
chain: B2 chain with S57D
notes: also called double phosphomimicking mutant; source: E. coli BL21(DE3) CodonPlus RIL, purified (protocol of Hritz et al., 2014)
Kd [7]: 348 ± 19 µM

B4: 14-3-3ζ S58E (natural protein, UniProt P63104 1-245, looked up)
chain: B2 chain with D58E
notes: 14-3-3ζ protein with C25A C189A and the phosphomimicking mutation S58E; source: E. coli BL21(DE3) CodonPlus RIL, purified (protocol of Hritz et al., 2014)
stoichiometry N [8]: 2
